According to PMC8688474 (Nature Communications, 2021):

Target: T1, WT SARS-CoV-2 RBD protein (SARS-CoV-2, Wuhan-Hu-1 (WT), UniProt P0DTC2)
T1 construct: also called WT RBD
Assay: ELISA
Settings: both partners purified

Binder | binding result
neutralizing MAb 3C1 (antibody, V domains shown) VH: EVQLQESGPSLVKPSQTLSLTCSVTGDSITNGYWNWIRKFPGNKLEYMGYISYSGSTYYSPSLKSRISITRDTSKNQHYLQLNSVTSEDTATYYCASDYHGSKYYFDYWGQGTTLTVSS VL: DIVMTQSHKFMSTSVGHRVSITCKASQDVGNDVAWYQQKPGQSPKLLIYWASTRHTGVPDRFTGSGSGTDFTLTISNVQSEDLADYFCQQYNRYPYTFGGGTKLEIK | binds
neutralizing MAb 2H2 (antibody, V domains shown) VH: QVQLKQSGPSLVQPSQSLSITCTVSGFSLTSYGVHWVRQSPGKGLEWLGVMWRGGNTDYNAAFMSRLSITKDNSKSQVFFKMNSLQTDDTAIYYCAKNGGAHAMDFWGQGTSVTVSS VL: NIVLTQSPASLAVSLGQRATISCRASESVDSYGNSFLHWYQQKPGQPPKLLIYLASNLESGVPARFSGSGSRTDFTLTIDPVEADDAATYYCQQNNEDPFTFGSGTKLEIK | binds
